Laboratory results published in article PMC3553015 (2013).

B1: biotin-labeled AP2µ [modified: biotin (incorporated with Transcend Biotinylated tRNA during translation); biotin (incorporated with Transcend Biotinylated tRNA during translation)] [murine] / GST-CD79a cytoplasmic domain [murine] (parent complex)
chain 1: MIGGLFIYNHKGEVLISRVYRDDIGRNAVDAFRVNVIHARQQVRSPVTNIARTSFFHVKRSNIWLAAVTKQNVNAAMVFEFLYKMCDVMAAYFGKISEENIKNNFVLIYELLDEILDFGYPQNSETGALKTFITQQGIKSQHQTKEEQSQITSQVTGQIGWRREGIKYRRNELFLDVLESVNLLMSPQGQVLSAHVSGRVVMKSYLSGMPECKFGMNDKIVIEKQGKGTADETSKSGKQSIAIDDCTFHQCVRLSKFDSERSISFIPPDGEFELMRYRTTKDIILPFRVIPLVREVGRTKLEVKVVIKSNFKPSLLAQKIEVRIPTPLNTSGVQVICMKGKAKYKASENAIVWKIKRMAGMKESQISAEIELLPTNDKKKWARPPISMNFEVPFAPSGLKVRYLKVFEPKLNYSDHDVIKWVRYIGRSGIYETRC
chain 2: RKRWQNEKFGVDMPDDYEDENLYEGLNLDDCSMYEDISRGLQGTYQDVGNLHIGDAQLEKP
B2: biotin-labeled AP2µ [modified: biotin (incorporated with Transcend Biotinylated tRNA during translation); biotin (incorporated with Transcend Biotinylated tRNA during translation)] [murine] / GST-21-mer of CD79a centered on the membrane … (parent complex)
chain 1: B1 chain 1
chain 2: MPDDYEDENLYEGLNLDDCSM
B3: biotin-labeled AP2µ [modified: biotin (incorporated with Transcend Biotinylated tRNA during translation); biotin (incorporated with Transcend Biotinylated tRNA during translation)] [murine] / GST-21-mer of CD79a centered on Y193 [murine] (parent complex)
chain 1: B1 chain 1
chain 2: EGLNLDDCSMYEDISRGLQGT

Variants of: B1
Test: in vitro binding of AP2µ-btn to bead-captured GST fusion protein; parent: 100; read off a plot

percent of parent	Variant
~100 % of CD79a	chain 2 Y34E
~99 % of CD79a	chain 2 Y34A
~83 % of CD79a	chain 2 Y34E, chain 2 Y45E
~102 % of CD79a	chain 2 Y45E
~105 % of CD79a	chain 2 Y45A
~104 % of CD79a	chain 2 Y34A, chain 2 Y45A
~41 % of CD79a	chain 2 Y23E, chain 2 Y45E

The next lines start with the variant.

Variant	percent of parent
chain 2 Y23A, chain 2 Y34A, chain 2 Y45A	~53 % of CD79a
chain 2 Y23E, chain 2 Y34E	~58 % of CD79a
chain 2 Y23A, chain 2 Y45A	~50 % of CD79a
chain 2 Y23E, chain 2 Y34E, chain 2 Y45E	~24 % of CD79a
chain 2 Y23A, chain 2 Y34A	~78 % of CD79a
chain 2 Y23E	~49 % of CD79a
chain 2 Y23A	~77 % of CD79a

Variants of: B2
Test: in vitro binding of AP2µ-btn to bead-captured GST-21-mer; parent: 81; read off a plot

screen value	Variant
~41 % of full-length CD79a	chain 2 Y11A
~42 % of full-length CD79a	chain 2 Y11E

Variants of: B3
Test: in vitro binding of AP2µ-btn to bead-captured GST-21-mer; parent: 65; read off a plot

screen value	Variant
~53 % of full-length CD79a	chain 2 Y11E
~50 % of full-length CD79a	chain 2 Y11A
